# Laboratory results taken from patent publication US20170275344A1, “POLYPEPTIDES AND USES THEREOF AS A DRUG FOR TREATMENT OF AUTOIMMUNE DISORDERS” (Compugen Ltd., priority 2014, published 2017).
# How the values were obtained:
# Format in all cases: in vivo, mouse
# NOD mice = experiment: Type 1 diabetes incidence in NOD mice (blood glucose monitoring); conditions: for mice that developed T1D: 100 ug/dose
# Description: The effect of C1ORF32 ECD-Fc treatment on modulation of disease incidence was tested in NOD mice, which spontaneously develop a T1D disease. In NOD mice, autoreactive CD4+ can be observed within the β-islets as early as 2 weeks of age (Yang et al., Immunity 1996 February; 4(2):189-94), and by 10 weeks of age, when the treatment with C1ORF32 ECD-Fc (SEQ ID NO: 42) began in the present experiments, NOD mice develop peri-insulitis and β-cell loss (Jimeno et al., Immunology and Cell Biology. (2010) 88, 734-745).
# Materials: C1ORF ECD-Fc (SEQ ID NO:42) was used in these studies, as described below. Control Ig was mouse IgG2a from BioXcell (Cat# BE0085). NOD mice were purchased from Jackson labs, and blood glucose was measured via sampling a small drop of blood from the tail vein.
# Methods: Six week old NOD mice were purchased from Jackson labs. At 10 weeks of age, mice were split into groups and treated with either vehicle (PBS) Control Ig or C1ORF ECD-Fc (SEQ ID NO:42) as detailed below. Treatment was given via IP injections 3×/wk/2 wks. Blood glucose levels were monitored weekly from 8 weeks of age until the mice reached […] of age as detailed below. Mice were considered diabetic upon having two consecutive blood glucose readings of >250 mg/dL. Diabetic mice were sacrificed on the day of the second high glucose level reading. Blood glucose levels were obtained from the tail vein, and the level of blood glucose measured via use of a OneTouch. UltraSmart. Blood Glocuse Monitoring System (OneTouch; Johnson & Johnson; New Brunswick, N.J.) in a blinded manner. This study was carried out 3 times; For study 3 proteins were provided coded.
# Treatment groups (n=5 mice/group): 1. Control Ig (mouse IgG2a), 100 ug/dose 2. C1ORF ECD-Fc (SEQ ID NO:42), 100 ug/dose.
# Treatment groups (n=14-15): 1. Control Ig (mouse IgG2a; BioXcell) (100 ug/dose) 2. C1ORF ECD-Fc (SEQ ID NO:42) (100 ug/dose)
# SJL/J mice [1] = experiment: T cell and Treg counts in spleen and CNS, day 44 of EAE with IL-10 or TGFb blockade (FACS)
# Description: On day 44 post disease induction, the rest of the mice were sacrificed and spleens and CNS were taken for cell counts and cell population analysis as described below.
# 2. The spleens and CNS were collected.
# 4. Experimental stains (CD45, CD3, CD4, CD25, FoxP3, Nrp-1, and Helios)
# 9. Gating scheme for flow: Singlets (FSC-A vs. FSC-H)->Cells (SSC-A vs. FSC-A)->Live (VID stain negative cells)->CD45hi->CD3/CD4+->CD25/FoxP3+->Helios/Nrp-1
# SJL/J mice [2] = experiment: BBB breakdown and inflammation by fluorescence molecular tomography in adoptive transfer R-EAE; conditions: Day +30, treatment from onset of remission
# Description: […] At the time of imaging mice were anesthetized by administration of sodium pentobarbital (50 mg/kg) and then imaged using the FMT 2500 fluorescence molecular tomography in vivo imaging system. The data is presented as pmol of CathepsinB or AngioSense present within the brain (B) or spinal cord (C).
# Commercially available near infrared (NIR) imaging agents were used to perform tomographic imaging (PerkinElmer Inc., Boston, Mass.). […] For the in vivo imaging, mice were injected intravenously with 4 nmol of NIR fluorescent agent 24 hrs prior to imaging, and imaged following the last treatment with Control Ig or C1ORF32 ECD-Fc (SEQ ID NO: 42) (Day +30 post-PLP139-151 blast cell transfer). At the time of imaging, mice were anesthetized by administration of sodium pentobarbital (50 mg/kg) and then imaged using the FMT 2500 fluorescence molecular tomography in vivo imaging system (PerkinElmer Inc., Boston, Mass.). […] Appropriate optical filters allowed the collection of both fluorescence and excitation datasets, and the multiple source-detector fluorescence projections were normalized to the paired collection of laser excitation data. […] The total amount of fluorescence (in pmoles) in different organ sites was automatically calculated relative to internal standards generated with known concentrations of appropriate FR/NIR dyes. […]
# [3] = combined data from all 3 studies
molecule,measurement,setting,value
"C1ORF32 ECD-Fc (SEQ ID NO:42): fusion protein of human C1ORF32 ECD fused to mouse immunoglobulin Fc (human-mouse fusion protein) (protein, Fusion protein human C1ORF32-ECD fused to mouse IgG2a Fc) LQVTVPDKKKVAMLFQPTVLRCHFSTSSHQPAVVQWKFKSYCQDRMGESLGMSSTRAQSLSKRNLEWDPYLDCLDSRRTVRVVASKQGSTVTLGDFYRGREITIVHDADLQIGKLMWGDSGLYYCIITTPDDLEGKNEDSVELLVLGRTGLLADLLPSFAVEIMGSENLYFQGSGEPRGPTIKPCPPCKCPAPNLLGGPSVFIFPPKIKDVLMISLSPIVTCVVVDVSEDDPDVQISWFVNNVEVHTAQTQTHREDYNSTLRVVSALPIQHQDWMSGKEFKCKVNNKDLPAPIERTISKPKGSVRAPQVYVLPPPEEEMTKKQVTLTCMVTDFMPEDIYVEWTNNGKTELNYKNTEPVLDSDGSYFMYSKLRVEKKNWVERNSYSCSVVHEGLHNHHTTKSFSRTPGK",mice prevented from developing full blown autoimmune diabetes,"NOD mice; NOD mice, overall statement",77%
same,mice that did not develop T1D,"NOD mice; Study I, n=5, 100 ug/dose IP 3x/wk for 2 wks from 10 wks of age",3 out of 5
same,mice that developed T1D,"NOD mice; Study II, n=6",1 out of 6
same,mice that developed T1D,"NOD mice; Study III, n=14-15, by the age of 24 weeks",3 out of 15
same,mice in which T1D was observed,NOD mice; [3],6 out of 26
same,percent of mice in which T1D was observed,NOD mice; [3],23%
same,NRP+/Helios+ Treg subpopulation in the spleen,SJL/J mice [1]; administered concomitantly with anti-TGFβ,increase
same,Nrp+/HeliosLo Treg subpopulation in the spleen,SJL/J mice [1]; alone or concomitantly with anti-TGFβ,trend of increase
same,T cell counts in the spleen (mainly CD4+),SJL/J mice [1]; day 44,increase
same,effects on CNS and spleen cell counts following concomitant neutralization of IL-10 or TGF-β,SJL/J mice [1]; day 44,not observed
same,"leukocytes and T cell counts in the CNS (CD45+, CD4+, and CD25+/FoxP3+)",SJL/J mice [1]; day 44,pronounced decrease
same,Nrp-/HeliosLo Treg subpopulation in the spleen,SJL/J mice [1]; treatment alone,upregulation
same,monocyte/macrophage activity in the brain and spinal cord (lysosomal CathepsinB activity),SJL/J mice [2],reduced lysosomal CathepsinB activity; however this effect did not reach statistical significance
same,vascular leakage in the brain and spinal cord (AngioSense720 levels),SJL/J mice [2]; significant,decreased vascular leakage
